We go through one substance from US20260028423A1, “PREDICTION OF AN INCREASE OF DPP3 IN A PATIENT WITH SEPTIC SHOCK” (4TEEN4 Pharmaceuticals GmbH, priority 2022, published 2026).

Assay [1] has as its target T1, Recombinant GST-tagged hDPP3 (Homo sapiens, UniProt Q9NY33).
T1 construct: purchased USBio (United States Biological, Salem, MA, USA)
T1 sequence (Q9NY33 1-737): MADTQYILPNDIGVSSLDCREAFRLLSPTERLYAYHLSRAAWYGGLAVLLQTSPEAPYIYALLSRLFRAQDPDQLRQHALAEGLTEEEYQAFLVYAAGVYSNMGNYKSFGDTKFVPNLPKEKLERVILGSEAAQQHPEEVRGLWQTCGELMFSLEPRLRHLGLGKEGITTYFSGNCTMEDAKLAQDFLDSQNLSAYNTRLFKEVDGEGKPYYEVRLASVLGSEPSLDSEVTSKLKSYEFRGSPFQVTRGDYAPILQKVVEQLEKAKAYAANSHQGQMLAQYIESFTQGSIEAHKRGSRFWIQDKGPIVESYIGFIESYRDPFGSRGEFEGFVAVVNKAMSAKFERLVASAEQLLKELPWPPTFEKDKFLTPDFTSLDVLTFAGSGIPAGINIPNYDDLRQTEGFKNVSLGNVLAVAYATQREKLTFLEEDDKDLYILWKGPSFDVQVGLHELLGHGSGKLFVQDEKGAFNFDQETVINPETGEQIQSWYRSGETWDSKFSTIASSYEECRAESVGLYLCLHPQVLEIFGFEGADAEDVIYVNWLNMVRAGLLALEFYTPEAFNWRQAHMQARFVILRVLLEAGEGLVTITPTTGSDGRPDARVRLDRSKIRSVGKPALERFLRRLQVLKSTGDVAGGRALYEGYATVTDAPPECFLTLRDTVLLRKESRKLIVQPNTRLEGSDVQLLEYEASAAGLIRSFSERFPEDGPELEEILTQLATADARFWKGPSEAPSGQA
In words: hDPP3 inhibition analysis (DPP3 activity assay, Arg-Arg-βNA). Type of assay: biochemical. To be noted: 25 ng/ml GST-DPP3, 10 μg antibody. As for the experimental part: To analyze the capability of DPP3 inhibition by the different antibodies and antibody clones a DPP3 activity assay with known procedure (Jones et al., 1982) was performed. Recombinant GST-tagged hDPP3 was diluted in assay buffer (25 ng/ml GST-DPP3 in 50 mM Tris-HCl, pH7,5 and 100 μM ZnCl2) and 200 μl of this solution incubated with 10 μg of the respective antibody at room temperature. After 1 hour of pre-incubation, fluorogenic substrate Arg-Arg-βNA (20 μl, 2 mM) was added to the solution and the generation of free βNA over time was monitored using the Twinkle LB 970 microplate fluorometer (Berthold Technologies GmbH & Co. KG) at 37° C. Fluorescence of βNA is detected by exciting at 340 nm and measuring emission at 410 nm. Slopes (in RFU/min) of increasing fluorescence of the different samples are calculated. The slope of GST-hDPP3 with buffer control is appointed as 100% activity. The inhibitory ability of a possible capture-binder is defined as the decrease of GST-hDPP3 activity by incubation with said capture-binder in percent.

The target of another assay is T2, DPP3 (Homo sapiens, UniProt Q9NY33).
T2 construct: from tissue; host or cells: lysate of blood cells from human EDTA-blood
T2 sequence (Q9NY33 1-737): T1 sequence (Q9NY33 1-737)
The experiment in a line: Western Blot analysis of binding specificity in blood cell lysate. The settings on record: AK1967 as primary antibody. As to the method:
Blood cells from human EDTA-blood were washed (3× in PBS), diluted in PBS and lysed by repeated freeze-thaw-cycles. […] Dilutions of blood cell lysate (1:40, 1:80, 1:160 and 1:320) and of purified recombinant human His-DPP3 (31.25-500 ng/ml) were subjected to SDS-PAGE and Western Blot. The blots were incubated in 1.) blocking buffer (1×PBS-T with 5% skim milk powder), 2.) primary antibody solution (AK1967 1:2.000 in blocking buffer) and 3.) HRP labelled secondary antibody (goat anti mouse IgG, 1:1.000 in blocking buffer). Bound secondary antibody was detected using the Amersham ECL Western Blotting Detection Reagent and the Amersham Imager 600 UV (both from GE Healthcare).
For orientation: A western blot detects proteins with antibodies after separation by electrophoresis.

In assay [2] the target is T3, native DPP3 from blood cells (Homo sapiens, UniProt Q9NY33).
T3 construct: from tissue; host or cells: blood cells
T3 sequence (Q9NY33 1-737): T1 sequence (Q9NY33 1-737)
The experiment in a line: DPP3 inhibition curve (FIG. 7). In kind it is biochemical. To be noted: against 15 ng/ml DPP3.

For “Clone 1967: anti-DPP3 monoclonal antibody, clone 1967 of SEQ ID No.: 37 (AK1967; Procizumab); humanized chains SEQ ID No. 47 and 48”, in assay [1], the “Max. inhibition of hDPP3” value is listed as 70%. Further, in the assay with DPP3, the “binding specificity in lysate of blood cells” value is listed as “no other unspecific binding takes place”. The “IC50 of DPP3 inhibition” value in assay [2] is “about 15 ng/ml”.
